According to US20230235013A1 (MABSOLVE, published 2023):

How the values were obtained:
[1] = biological target: T1, human FcRn (R&D Systems Cat. No. 8639-Fc) (human, UniProt P55899 24-297; P61769 21-119); assay: SPR, FcRn captured; Mean
[2] = biological target: T1, human FcRn (R&D Systems Cat. No. …); assay: SPR, FcRn captured; Expt 2
[3] = biological target: T1, human FcRn (R&D Systems Cat. No. …); assay: SPR, FcRn captured; Expt 3
[4] = biological target: T2, Human C1q (Sigma Cat. No. 20476), HRP-labelled (human, UniProt P02745 23-245; P02746 28-253; P02747 29-245); assay: ELISA, antibody coated, HRP-C1q; Expt 1, buffer alone 0.061
T2 construct: Coupled to horse-radish peroxidase with Lightning-Link kit; also called HRP-labelled C1q

[5] = biological target: T1, human FcRn (R&D Systems Cat. No. …); assay: SPR, FcRn captured; Expt 1

Corrected and normalised response (% of wild-type reference) [1] | Corrected and normalised response (% of wild-type reference) [2] | Corrected and normalised response (% of wild-type reference) [3] | Mean Absorbance [4] | Corrected and normalised response (% of wild-type reference) [5] | Binder
94.3 % of wild-type reference | 93.7 % of wild-type reference | 94.1 % of wild-type reference | 0.049 absorbance (450 nm) | 94.9 % of wild-type reference | anti-CD20 (rituximab) human IgG1 L234D/L235K/G236R (antibody, EU numbering; also called 2-7; 1-23; copies: 2 + 2) heavy: QVQLQQPGAELVKPGASVKMSCKASGYTFTSYNMHWVKQTPGRGLEWIGAIYPGNGDTSYNQKFKGKATLTADKSSSTAYMQLSSLTSEDSAVYYCARSTYYGGDWYFNVWGAGTTVTVSSASTKGPSVFPLAPSSKSTSGGTAALGCLVKDYFPEPVTVSWNSGALTSGVHTFPAVLQSSGLYSLSSVVTVPSSSLGTQTYICNVNHKPSNTKVDKKVEPKSCDKTHTCPPCPAPEDKRGPSVFLFPPKPKDTLMISRTPEVTCVVVDVSHEDPEVKFNWYVDGVEVHNAKTKPREEQYNSTYRVVSVLTVLHQDWLNGKEYKCKVSNKALPAPIEKTISKAKGQPREPQVYTLPPSRDELTKNQVSLTCLVKGFYPSDIAVEWESNGQPENNYKTTPPVLDSDGSFFLYSKLTVDKSRWQQGNVFSCSVMHEALHNHYTQKSLSLSPGK light: QIVLSQSPAILSASPGEKVTMTCRASSSVSYIHWFQQKPGSSPKPWIYATSNLASGVPVRFSGSGSGTSYSLTISRVEAEDAATYYCQQWTSNPPTFGGGTKLEIKRTVAAPSVFIFPPSDEQLKSGTASVVCLLNNFYPREAKVQWKVDNALQSGNSQESVTEQDSKDSTYSLSSTLTLSKADYEKHKVYACEVTHQGLSSPVTKSFNRGEC
98.4 % of wild-type reference | 98.6 % of wild-type reference | 97.8 % of wild-type reference | 0.048 absorbance (450 nm) | 99 % of wild-type reference | anti-CD20 (rituximab) human IgG1 L234R/L235E/G236R (antibody, EU numbering; also called 2-37; copies: 2 + 2) heavy: QVQLQQPGAELVKPGASVKMSCKASGYTFTSYNMHWVKQTPGRGLEWIGAIYPGNGDTSYNQKFKGKATLTADKSSSTAYMQLSSLTSEDSAVYYCARSTYYGGDWYFNVWGAGTTVTVSSASTKGPSVFPLAPSSKSTSGGTAALGCLVKDYFPEPVTVSWNSGALTSGVHTFPAVLQSSGLYSLSSVVTVPSSSLGTQTYICNVNHKPSNTKVDKKVEPKSCDKTHTCPPCPAPERERGPSVFLFPPKPKDTLMISRTPEVTCVVVDVSHEDPEVKFNWYVDGVEVHNAKTKPREEQYNSTYRVVSVLTVLHQDWLNGKEYKCKVSNKALPAPIEKTISKAKGQPREPQVYTLPPSRDELTKNQVSLTCLVKGFYPSDIAVEWESNGQPENNYKTTPPVLDSDGSFFLYSKLTVDKSRWQQGNVFSCSVMHEALHNHYTQKSLSLSPGK light: QIVLSQSPAILSASPGEKVTMTCRASSSVSYIHWFQQKPGSSPKPWIYATSNLASGVPVRFSGSGSGTSYSLTISRVEAEDAATYYCQQWTSNPPTFGGGTKLEIKRTVAAPSVFIFPPSDEQLKSGTASVVCLLNNFYPREAKVQWKVDNALQSGNSQESVTEQDSKDSTYSLSSTLTLSKADYEKHKVYACEVTHQGLSSPVTKSFNRGEC
100 % of wild-type reference | 100 % of wild-type reference | 100 % of wild-type reference | 0.126 absorbance (450 nm) | 99.2 % of wild-type reference | anti-CD20 (rituximab) human IgG1 L234T/L235K/G236R (antibody, EU numbering; also called 2-58; copies: 2 + 2) heavy: QVQLQQPGAELVKPGASVKMSCKASGYTFTSYNMHWVKQTPGRGLEWIGAIYPGNGDTSYNQKFKGKATLTADKSSSTAYMQLSSLTSEDSAVYYCARSTYYGGDWYFNVWGAGTTVTVSSASTKGPSVFPLAPSSKSTSGGTAALGCLVKDYFPEPVTVSWNSGALTSGVHTFPAVLQSSGLYSLSSVVTVPSSSLGTQTYICNVNHKPSNTKVDKKVEPKSCDKTHTCPPCPAPETKRGPSVFLFPPKPKDTLMISRTPEVTCVVVDVSHEDPEVKFNWYVDGVEVHNAKTKPREEQYNSTYRVVSVLTVLHQDWLNGKEYKCKVSNKALPAPIEKTISKAKGQPREPQVYTLPPSRDELTKNQVSLTCLVKGFYPSDIAVEWESNGQPENNYKTTPPVLDSDGSFFLYSKLTVDKSRWQQGNVFSCSVMHEALHNHYTQKSLSLSPGK light: QIVLSQSPAILSASPGEKVTMTCRASSSVSYIHWFQQKPGSSPKPWIYATSNLASGVPVRFSGSGSGTSYSLTISRVEAEDAATYYCQQWTSNPPTFGGGTKLEIKRTVAAPSVFIFPPSDEQLKSGTASVVCLLNNFYPREAKVQWKVDNALQSGNSQESVTEQDSKDSTYSLSSTLTLSKADYEKHKVYACEVTHQGLSSPVTKSFNRGEC
95.6 % of wild-type reference | 95.4 % of wild-type reference | 96 % of wild-type reference | 0.038 absorbance (450 nm) | 95.5 % of wild-type reference | anti-CD20 (rituximab) human IgG1 L234R/L235D/G236R (antibody, EU numbering; copies: 2 + 2) heavy: QVQLQQPGAELVKPGASVKMSCKASGYTFTSYNMHWVKQTPGRGLEWIGAIYPGNGDTSYNQKFKGKATLTADKSSSTAYMQLSSLTSEDSAVYYCARSTYYGGDWYFNVWGAGTTVTVSSASTKGPSVFPLAPSSKSTSGGTAALGCLVKDYFPEPVTVSWNSGALTSGVHTFPAVLQSSGLYSLSSVVTVPSSSLGTQTYICNVNHKPSNTKVDKKVEPKSCDKTHTCPPCPAPERDRGPSVFLFPPKPKDTLMISRTPEVTCVVVDVSHEDPEVKFNWYVDGVEVHNAKTKPREEQYNSTYRVVSVLTVLHQDWLNGKEYKCKVSNKALPAPIEKTISKAKGQPREPQVYTLPPSRDELTKNQVSLTCLVKGFYPSDIAVEWESNGQPENNYKTTPPVLDSDGSFFLYSKLTVDKSRWQQGNVFSCSVMHEALHNHYTQKSLSLSPGK light: QIVLSQSPAILSASPGEKVTMTCRASSSVSYIHWFQQKPGSSPKPWIYATSNLASGVPVRFSGSGSGTSYSLTISRVEAEDAATYYCQQWTSNPPTFGGGTKLEIKRTVAAPSVFIFPPSDEQLKSGTASVVCLLNNFYPREAKVQWKVDNALQSGNSQESVTEQDSKDSTYSLSSTLTLSKADYEKHKVYACEVTHQGLSSPVTKSFNRGEC
97.1 % of wild-type reference | 96.6 % of wild-type reference | 97.4 % of wild-type reference | 0.032 absorbance (450 nm) | 97.3 % of wild-type reference | anti-CD20 (rituximab) human IgG1 L234Q/L235V/G236R (antibody, EU numbering; copies: 2 + 2) heavy: QVQLQQPGAELVKPGASVKMSCKASGYTFTSYNMHWVKQTPGRGLEWIGAIYPGNGDTSYNQKFKGKATLTADKSSSTAYMQLSSLTSEDSAVYYCARSTYYGGDWYFNVWGAGTTVTVSSASTKGPSVFPLAPSSKSTSGGTAALGCLVKDYFPEPVTVSWNSGALTSGVHTFPAVLQSSGLYSLSSVVTVPSSSLGTQTYICNVNHKPSNTKVDKKVEPKSCDKTHTCPPCPAPEQVRGPSVFLFPPKPKDTLMISRTPEVTCVVVDVSHEDPEVKFNWYVDGVEVHNAKTKPREEQYNSTYRVVSVLTVLHQDWLNGKEYKCKVSNKALPAPIEKTISKAKGQPREPQVYTLPPSRDELTKNQVSLTCLVKGFYPSDIAVEWESNGQPENNYKTTPPVLDSDGSFFLYSKLTVDKSRWQQGNVFSCSVMHEALHNHYTQKSLSLSPGK light: QIVLSQSPAILSASPGEKVTMTCRASSSVSYIHWFQQKPGSSPKPWIYATSNLASGVPVRFSGSGSGTSYSLTISRVEAEDAATYYCQQWTSNPPTFGGGTKLEIKRTVAAPSVFIFPPSDEQLKSGTASVVCLLNNFYPREAKVQWKVDNALQSGNSQESVTEQDSKDSTYSLSSTLTLSKADYEKHKVYACEVTHQGLSSPVTKSFNRGEC
101 % of wild-type reference | 100 % of wild-type reference | 100 % of wild-type reference | 0.073 absorbance (450 nm) | 101 % of wild-type reference | anti-CD20 (rituximab) human IgG1 L234K/L235V/G236R (antibody, EU numbering; also called 2-26; 1-91; copies: 2 + 2) heavy: QVQLQQPGAELVKPGASVKMSCKASGYTFTSYNMHWVKQTPGRGLEWIGAIYPGNGDTSYNQKFKGKATLTADKSSSTAYMQLSSLTSEDSAVYYCARSTYYGGDWYFNVWGAGTTVTVSSASTKGPSVFPLAPSSKSTSGGTAALGCLVKDYFPEPVTVSWNSGALTSGVHTFPAVLQSSGLYSLSSVVTVPSSSLGTQTYICNVNHKPSNTKVDKKVEPKSCDKTHTCPPCPAPEKVRGPSVFLFPPKPKDTLMISRTPEVTCVVVDVSHEDPEVKFNWYVDGVEVHNAKTKPREEQYNSTYRVVSVLTVLHQDWLNGKEYKCKVSNKALPAPIEKTISKAKGQPREPQVYTLPPSRDELTKNQVSLTCLVKGFYPSDIAVEWESNGQPENNYKTTPPVLDSDGSFFLYSKLTVDKSRWQQGNVFSCSVMHEALHNHYTQKSLSLSPGK light: QIVLSQSPAILSASPGEKVTMTCRASSSVSYIHWFQQKPGSSPKPWIYATSNLASGVPVRFSGSGSGTSYSLTISRVEAEDAATYYCQQWTSNPPTFGGGTKLEIKRTVAAPSVFIFPPSDEQLKSGTASVVCLLNNFYPREAKVQWKVDNALQSGNSQESVTEQDSKDSTYSLSSTLTLSKADYEKHKVYACEVTHQGLSSPVTKSFNRGEC
100 % of wild-type reference | 99.6 % of wild-type reference | 99.5 % of wild-type reference | 0.059 absorbance (450 nm) | 101 % of wild-type reference | anti-CD20 (rituximab) human IgG1 L234K/L235R/G236R (antibody, EU numbering; also called 2-23; 1-88; copies: 2 + 2) heavy: QVQLQQPGAELVKPGASVKMSCKASGYTFTSYNMHWVKQTPGRGLEWIGAIYPGNGDTSYNQKFKGKATLTADKSSSTAYMQLSSLTSEDSAVYYCARSTYYGGDWYFNVWGAGTTVTVSSASTKGPSVFPLAPSSKSTSGGTAALGCLVKDYFPEPVTVSWNSGALTSGVHTFPAVLQSSGLYSLSSVVTVPSSSLGTQTYICNVNHKPSNTKVDKKVEPKSCDKTHTCPPCPAPEKRRGPSVFLFPPKPKDTLMISRTPEVTCVVVDVSHEDPEVKFNWYVDGVEVHNAKTKPREEQYNSTYRVVSVLTVLHQDWLNGKEYKCKVSNKALPAPIEKTISKAKGQPREPQVYTLPPSRDELTKNQVSLTCLVKGFYPSDIAVEWESNGQPENNYKTTPPVLDSDGSFFLYSKLTVDKSRWQQGNVFSCSVMHEALHNHYTQKSLSLSPGK light: QIVLSQSPAILSASPGEKVTMTCRASSSVSYIHWFQQKPGSSPKPWIYATSNLASGVPVRFSGSGSGTSYSLTISRVEAEDAATYYCQQWTSNPPTFGGGTKLEIKRTVAAPSVFIFPPSDEQLKSGTASVVCLLNNFYPREAKVQWKVDNALQSGNSQESVTEQDSKDSTYSLSSTLTLSKADYEKHKVYACEVTHQGLSSPVTKSFNRGEC
